In patent publication US20200277373A1 (published 2020) one finds EC50 and Kd data, which are given here for two molecules.

One experiment addresses T1, Mouse TREM2, on cells (mouse, UniProt Q99NH8 19-227).
T1 chain: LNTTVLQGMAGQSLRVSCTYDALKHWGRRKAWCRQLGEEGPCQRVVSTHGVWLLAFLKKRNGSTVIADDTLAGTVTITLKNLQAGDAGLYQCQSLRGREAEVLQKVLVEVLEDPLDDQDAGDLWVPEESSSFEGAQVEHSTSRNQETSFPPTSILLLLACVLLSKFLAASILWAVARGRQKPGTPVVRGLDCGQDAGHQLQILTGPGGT
The experiment is described as follows: FACS cell binding; FIG. 1D.

Experiment [1] addresses T2, His-tagged TREM2 ECD (ecto domain residues 19-172 of human TREM2, C-terminal 6X-His tag) (UniProt Q9NZC2 19-172).
T2 chain: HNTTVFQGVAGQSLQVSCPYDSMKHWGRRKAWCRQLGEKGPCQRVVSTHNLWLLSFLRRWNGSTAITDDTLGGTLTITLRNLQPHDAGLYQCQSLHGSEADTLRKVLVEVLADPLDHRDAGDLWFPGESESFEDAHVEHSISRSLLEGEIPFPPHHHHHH
The experiment is described as follows: SPR (Biacore).

B1: RS9.F6 (antibody, V domains shown)
VH: QVQLQQPGAELVKPGASVKLSCKASGYTFTSYWMHWVKQSPGRGLEWIGRSDPTTGGTNYNEKFKTKATLTVDKPSSTAYMQLSSLTSDDSAVYYCVRTSGTGDYWGQGTSLTVSS
VL: DVVMTQTPLSLPVSLGDQASISCRSSQSLVHNNGNTFLHWYLQKPGQSPKLLIYKVSNRFSGVPDRFSGSGSGTDFTLKISRVEAEDLGVYFCSQTTHVPPTFGGGTKLEIK
In general, EC50 refers to the midpoint of the concentration-response curve. Low values mean higher potency in that assay, high ones lower potency in that assay. In the case of B1, the EC50 with Mouse TREM2, on cells stood at 6.81 nM.

B2: RS9.F6/3C.35.21.17 (bispecific antibody)
heavy 1: QVQLQQPGAELVKPGASVKLSCKASGYTFTSYWMHWVKQSPGRGLEWIGRSDPTTGGTNYNEKFKTKATLTVDKPSSTAYMQLSSLTSDDSAVYYCVRTSGTGDYWGQGTSLTVSSASTKGPSVFPLAPSSKSTSGGTAALGCLVKDYFPEPVTVSWNSGALTSGVHTFPAVLQSSGLYSLSSVVTVPSSSLGTQTYICNVNHKPSNTKVDKKVEPKSCDKTHTCPPCPAPEAAGGPSVFLFPPKPKDTLMISRTPEVTCVVVDVSHEDPEVKFNWYVDGVEVHNAKTKPREEQYNSTYRVVSVLTVLHQDWLNGKEYKCKVSNKALGAPIEKTISKAKGQPREPQVYTLPPSRDELTKNQVSLWCLVKGFYPSDIAVLWESYGTEWASYKTTPPVLDSDGSFFLYSKLTVTKEEWQQGFVFSCSVMHEALHNHYTQKSLSLSPGK
heavy 2: QVQLQQPGAELVKPGASVKLSCKASGYTFTSYWMHWVKQSPGRGLEWIGRSDPTTGGTNYNEKFKTKATLTVDKPSSTAYMQLSSLTSDDSAVYYCVRTSGTGDYWGQGTSLTVSSASTKGPSVFPLAPSSKSTSGGTAALGCLVKDYFPEPVTVSWNSGALTSGVHTFPAVLQSSGLYSLSSVVTVPSSSLGTQTYICNVNHKPSNTKVDKKVEPKSCDKTHTCPPCPAPEAAGGPSVFLFPPKPKDTLMISRTPEVTCVVVDVSHEDPEVKFNWYVDGVEVHNAKTKPREEQYNSTYRVVSVLTVLHQDWLNGKEYKCKVSNKALGAPIEKTISKAKGQPREPQVYTLPPSRDELTKNQVSLSCAVKGFYPSDIAVEWESNGQPENNYKTTPPVLDSDGSFFLVSKLTVDKSRWQQGNVFSCSVMHEALHNHYTQKSLSLSPGK
light: B1 VL
In general, Kd refers to the free concentration of one partner at which half of the binding sites on the other are occupied at equilibrium, for simple one-to-one binding. Low values mean tighter binding, high ones weaker binding. The molecule B2 returned a dissociation constant Kd in experiment [1] of 2.27 nM.
